Our source for the Km and kcat values is paper PMC7284770, “Cloning and Expression of a Perilla frutescens Cytochrome P450 Enzyme Catalyzing the Hydroxylation of Phenylpropenes” (Plants, 2020).

The Km is the concentration of substrate that gives half-maximal velocity. For orientation: kcat means the maximal rate divided by the concentration of active sites.

In this data set the test system is T1, C=CCc1cc(OC)c2c(c1)OCO2.
T1 construct: full-length, 505 residues, 57 kD, untagged; microsomal fraction of Saccharomyces cerevisiae AH22, vector pGYR-SpeI co-expressing yeast NADPH-P450 reductase
In words: GC-FID product assay, yeast microsomal fraction. Type of data set: biochemical, Perilla frutescens. Conditions: 0.5 mM NADPH, 50 mM HEPES/NaOH pH 7.5, 30 °C, 15 min, myristicin 0.2 to 10 µM, co-expressed yeast NADPH-P450 reductase, product 6-allyl-4-methoxy-1,3-benzodioxol-5-ol. The text has this:
GC-FID product assay, yeast microsomal fraction on Pf-49487 (CYP71D558) | We performed kinetic analyses of the Pf-49487 reaction using myristicin as substrate.

Turning to “Pf-49487 (CYP71D558) (Perilla frutescens)”, the Km came out at 9.1 µM and the kcat came to 0.25 s⁻¹.
